Starred links: 1 amine or outer side, 2 acyl side, 3 side chain; linkers in the order of their positions; H or OH if unused. Positions of bridges follow the written chain, without caps; N, C: chain ends. Non-standard residues stand in square brackets, D forms with d. Primed or numbered codes have the meaning given here. B5(10) = 2-amino-2-(pent-4-en-1-yl)hept-6-enoic acid, bis(4-pentenyl)glycine, stitching residue bearing both staples, C=CCCCC(CCCC=C)(N[*:1])C(=O)[*:2]; B5(4) = 2,2-bis(4-pentenyl)glycine = 2-amino-2-(pent-4-en-1-yl)hept-6-enoic acid (stitching residue), C=CCCCC(CCCC=C)(N[*:1])C(=O)[*:2]; B5(5) = 2,2-bis(4-pentenyl)glycine, 2-amino-2-(pent-4-en-1-yl)hept-6-enoic acid (stitching residue), C=CCCCC(CCCC=C)(N[*:1])C(=O)[*:2]; PyrS2 = (S)-3-amino-1-((pent-4-en-1-yloxy)carbonyl)pyrrolidine-3-carboxylic acid, C=CCCCOC(=O)N1CC[C@@](N[*:1])(C(=O)[*:2])C1; B5 = 2-amino-2-(pent-4-en-1-yl)hept-6-enoic acid, C=CCCCC(CCCC=C)(N[*:1])C(=O)[*:2]; Phe(3-CF3) = N[C@@H](Cc1cccc(C(F)(F)F)c1)C(=O)O; Phe(3-COOH) = N[C@@H](Cc1cccc(C(=O)O)c1)C(=O)O; Phe(2-CF3) = N[C@@H](Cc1ccccc1C(F)(F)F)C(=O)O; Phe(3,5-F2) = N[C@@H](Cc1cc(F)cc(F)c1)C(=O)O; Phe(3-F) = N[C@@H](Cc1cccc(F)c1)C(=O)O; Phe(4-F) = N[C@@H](Cc1ccc(F)cc1)C(=O)O; Bta = N[C@@H](Cc1csc2ccccc12)C(=O)O; αAllylPro = C=CC[C@@]1(C(=O)O)CCCN1; tBuAla = CC(C)(C)C[C@H](N)C(=O)O; Aad = N[C@@H](CCCC(=O)O)C(=O)O; S8 = C=CCCCCCC[C@](C)(N)C(=O)O
Experiments:
[1] = biological target: T1, beta-Catenin (full-length, Uniprot ID P35222) (Homo sapiens (Human), UniProt P35222 1-781); test: fluorescence polarization competition: peptide titrated against 10 nM full-length beta-catenin + 10 nM 5FAM-labeled TCF4 residues 10-53 probe
T1 construct: also called bCat; B-Catenin
T1 sequence: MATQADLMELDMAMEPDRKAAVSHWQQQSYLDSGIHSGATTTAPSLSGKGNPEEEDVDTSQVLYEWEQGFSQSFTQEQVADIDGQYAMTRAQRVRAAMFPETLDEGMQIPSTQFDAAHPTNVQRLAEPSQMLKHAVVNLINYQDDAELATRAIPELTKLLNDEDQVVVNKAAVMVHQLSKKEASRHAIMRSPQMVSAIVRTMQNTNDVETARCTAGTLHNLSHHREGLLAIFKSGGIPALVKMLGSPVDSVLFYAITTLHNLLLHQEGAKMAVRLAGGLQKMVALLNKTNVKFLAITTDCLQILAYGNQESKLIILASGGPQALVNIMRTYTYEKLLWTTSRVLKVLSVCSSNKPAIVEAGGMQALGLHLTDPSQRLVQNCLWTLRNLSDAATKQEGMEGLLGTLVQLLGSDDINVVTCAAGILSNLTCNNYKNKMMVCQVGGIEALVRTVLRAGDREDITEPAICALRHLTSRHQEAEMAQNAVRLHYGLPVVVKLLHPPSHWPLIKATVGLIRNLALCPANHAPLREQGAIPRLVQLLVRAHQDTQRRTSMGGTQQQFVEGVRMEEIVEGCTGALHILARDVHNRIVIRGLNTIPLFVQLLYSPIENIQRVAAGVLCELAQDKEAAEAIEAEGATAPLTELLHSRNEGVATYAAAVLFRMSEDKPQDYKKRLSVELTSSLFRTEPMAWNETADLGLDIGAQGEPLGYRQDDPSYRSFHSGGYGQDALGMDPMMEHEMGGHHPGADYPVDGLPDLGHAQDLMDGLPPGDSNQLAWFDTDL
Description: (§1) The plate was incubated protected from light for 60 minutes at 20° C. prior to read. Reads were performed on a CLARIOstar plate reader (BMG Labtech) in duplicate, and data were fitted to a 1:1 binding model with hill slope using an in-house script. All provided concentrations are final concentrations.

[2] = biological target: T2, beta-catenin in DLD1 TCF/LEF luciferase reporter cells (UniProt P35222 1-781); test: cell-based or functional assay
T2 sequence (looked up): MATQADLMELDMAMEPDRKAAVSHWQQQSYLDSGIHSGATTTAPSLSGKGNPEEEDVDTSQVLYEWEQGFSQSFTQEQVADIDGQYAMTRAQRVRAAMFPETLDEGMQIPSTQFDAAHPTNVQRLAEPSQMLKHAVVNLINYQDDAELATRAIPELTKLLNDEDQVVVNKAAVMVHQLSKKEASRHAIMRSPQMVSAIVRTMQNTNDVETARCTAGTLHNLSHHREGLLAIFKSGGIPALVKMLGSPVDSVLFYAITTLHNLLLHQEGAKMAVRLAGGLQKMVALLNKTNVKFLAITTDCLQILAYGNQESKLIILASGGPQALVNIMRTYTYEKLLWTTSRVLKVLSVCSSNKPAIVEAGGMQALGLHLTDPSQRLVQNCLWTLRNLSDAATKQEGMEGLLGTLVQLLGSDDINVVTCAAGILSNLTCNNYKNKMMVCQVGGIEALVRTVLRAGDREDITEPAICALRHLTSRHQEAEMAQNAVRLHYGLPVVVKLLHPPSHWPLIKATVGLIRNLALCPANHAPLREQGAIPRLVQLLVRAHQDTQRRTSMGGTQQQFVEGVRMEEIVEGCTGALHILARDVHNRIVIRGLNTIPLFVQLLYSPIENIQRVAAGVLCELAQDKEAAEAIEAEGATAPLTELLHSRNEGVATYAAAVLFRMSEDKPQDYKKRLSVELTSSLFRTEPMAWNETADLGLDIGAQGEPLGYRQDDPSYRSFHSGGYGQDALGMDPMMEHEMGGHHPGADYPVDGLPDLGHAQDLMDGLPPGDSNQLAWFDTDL

[3] = biological target: T3, full-length beta-Catenin (Uniprot ID P35222) (Homo sapiens (Human), UniProt P35222 2-781); test: fluorescence polarization competition; 5FAM-TCF4(10-53) probe with full-length beta-catenin
T3 construct: also called B-Catenin; bCat
T3 sequence: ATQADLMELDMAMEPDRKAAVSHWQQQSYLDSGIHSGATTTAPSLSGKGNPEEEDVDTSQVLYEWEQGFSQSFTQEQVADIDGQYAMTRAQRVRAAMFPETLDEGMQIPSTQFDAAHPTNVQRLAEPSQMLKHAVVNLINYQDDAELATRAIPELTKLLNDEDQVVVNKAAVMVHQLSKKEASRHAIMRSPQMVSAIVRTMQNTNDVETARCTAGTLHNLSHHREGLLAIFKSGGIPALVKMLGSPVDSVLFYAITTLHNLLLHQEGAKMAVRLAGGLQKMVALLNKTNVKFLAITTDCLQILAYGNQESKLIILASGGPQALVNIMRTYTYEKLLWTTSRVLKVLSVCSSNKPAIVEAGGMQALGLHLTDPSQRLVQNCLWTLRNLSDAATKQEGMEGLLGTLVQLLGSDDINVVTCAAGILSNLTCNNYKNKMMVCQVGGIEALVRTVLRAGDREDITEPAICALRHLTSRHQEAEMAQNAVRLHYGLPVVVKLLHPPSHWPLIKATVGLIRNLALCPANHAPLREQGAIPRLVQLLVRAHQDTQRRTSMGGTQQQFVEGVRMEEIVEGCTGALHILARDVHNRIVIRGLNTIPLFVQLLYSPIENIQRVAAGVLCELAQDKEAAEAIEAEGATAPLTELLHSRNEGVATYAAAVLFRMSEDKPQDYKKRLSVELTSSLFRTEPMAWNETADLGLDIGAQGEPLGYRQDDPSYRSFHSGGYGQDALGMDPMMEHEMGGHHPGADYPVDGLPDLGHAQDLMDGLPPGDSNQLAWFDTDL
Description: as §1

[4] = biological target: T4, full-length beta-Catenin (Uniprot ID P35222) (Homo sapiens (Human), UniProt P35222 2-781); test: AlphaScreen competition: full-length beta-catenin + biotin-TCF4(10-53) probe, peptide titrated
T4 construct: The AlphaScreen assay used a Histidine (Nickel Chelate) detection kit, so a His tag is likely, but no tag is described; also called B-Catenin; bCat
T4 sequence: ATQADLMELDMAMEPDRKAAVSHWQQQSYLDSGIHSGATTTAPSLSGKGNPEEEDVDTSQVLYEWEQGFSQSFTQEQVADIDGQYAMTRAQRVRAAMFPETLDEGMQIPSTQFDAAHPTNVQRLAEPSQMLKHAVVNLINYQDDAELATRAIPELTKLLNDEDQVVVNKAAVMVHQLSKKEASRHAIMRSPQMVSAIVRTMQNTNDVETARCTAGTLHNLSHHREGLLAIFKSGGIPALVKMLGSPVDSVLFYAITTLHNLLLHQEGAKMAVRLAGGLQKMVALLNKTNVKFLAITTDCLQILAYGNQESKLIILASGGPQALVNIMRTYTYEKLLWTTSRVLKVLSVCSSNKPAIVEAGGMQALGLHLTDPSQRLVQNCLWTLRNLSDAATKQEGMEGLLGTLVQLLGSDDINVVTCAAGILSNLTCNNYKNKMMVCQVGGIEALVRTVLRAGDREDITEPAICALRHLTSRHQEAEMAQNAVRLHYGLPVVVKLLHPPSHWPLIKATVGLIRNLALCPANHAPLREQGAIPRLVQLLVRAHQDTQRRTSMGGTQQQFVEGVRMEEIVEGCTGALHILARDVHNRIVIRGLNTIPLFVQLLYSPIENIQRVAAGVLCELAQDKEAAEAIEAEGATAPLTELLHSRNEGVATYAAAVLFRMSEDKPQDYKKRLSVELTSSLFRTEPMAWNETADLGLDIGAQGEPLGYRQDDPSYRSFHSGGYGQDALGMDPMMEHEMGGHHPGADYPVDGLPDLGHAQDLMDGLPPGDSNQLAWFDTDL
Description: (§2) Equal volume of the titrated peptide was added to the plate and incubated for 15 minutes at 20° C. Then 4 uL of donor and 4 uL acceptor beads at 10 ug/mL were added to the plate, for a 16 uL reaction pool and protected from light for 60 minutes at 20° C. prior to read. Reads were performed on a CLARIOstar plate reader (BMG Labtech) in duplicate, and data were fitted to a 1:1 binding model with hill slope using an in-house script. All provided concentrations are final concentrations.

[5] = biological target: T4, full-length beta-Catenin (Uniprot ID …); test: fluorescence polarization competition: full-length beta-catenin + 5FAM-TCF4(10-53) probe, peptide titrated
Description: as §1

[6] = biological target: T3, full-length beta-Catenin (Uniprot ID …); test: Alphascreen competition; biotin-TCF4(10-53) probe with full-length beta-catenin
Description: as §2

B1: I-262: Ac-PL3-Asp-Ala-B5-Asp-Asp-Ala-Ala-Phe-Val-S8-34FF-Trp-Gln-NH2 (peptide)
peptide: XDAXDDAAFVXFWQ
modifications: not fully specified; N-terminal Ac; PL3 at position 1; B5 at position 4; S8 at position 11; 34FF at position 12; C-terminal NH2; stapled by olefin metathesis (PL3-B5 and B5-S8)
notes: It is the earlier-eluting isomer composition
IC50 [1]: 5000 nM

Ac-[αAllylPro]D[tBuAla][B5(5)]D[Phe(3-COOH)]AAFL[PyrS2][Phe(2-CF3)][Bta]QL[dL]-NH2 (staple 1-4, 4-11) [I-2396]
DLD1 4% Abs IC50 [2]: 1500 nM

B2: I-264: Ac-PL3-Asp-Ala-B5-Asp-Asp-Ala-Ala-3FF-Val-S8-Phe-Trp-Gln-NH2 (peptide)
peptide: Ac-[αAllylPro]DA[B5(4)]DDAA[Phe(3-F)]V[S8]FWQ-NH2
modifications: staple 1-4, 4-11; not fully specified; printed as Ac-PL3-Asp-Ala-B5-Asp-Asp-Ala-Ala-3FF-Val-S8-Phe-Trp-Gln-NH2
notes: as for B1
IC50 [1]: 5000 nM

B3: I-133 (peptide)
peptide: XDAXDEAAFVXFWX
modifications: not fully specified; as printed: Ac-PL3-Asp-Ala-B5-Asp-Glu-Ala-Ala-Phe-Val-S8-Phe-Trp-Aib-NH2; staples PL3(1)-B5(4) and B5(4)-S8(11)
notes: Stitched (two-staple) peptide composition
EC50 [3]: 5000 nM

B4: I-219 (peptide)
peptide: Ac-[αAllylPro]DA[B5(4)]DEAA[Phe(3,5-F2)]V[S8]FWQ-NH2
modifications: staple 1-4, 4-11
notes: Stapled peptide composition; also called Ac-PL3-Asp-Ala-B5-Asp-Glu-Ala-Ala-35FF-Val-S8-Phe-Trp-Gln-NH2
EC50 [4]: 131 nM
EC50 [5]: 2860 nM

B5: I-220 (peptide)
peptide: Ac-[αAllylPro]DA[B5(4)]DEAA[Phe(3,5-F2)]V[S8]FWQ-NH2
modifications: staple 1-4, 4-11
notes: as for B4
EC50 [4]: 131 nM
EC50 [5]: 2860 nM

Ac-[αAllylPro]DA[B5]DDAAFV[S8][Phe(3-CF3)]WQ-NH2 (staple 1-4, 4-11, These are separate isomer compositions) [I-250: Ac-PL3-Asp-Ala-B5-Asp-Asp-Ala-Ala-Phe-Val-S8-3F3MeF-Trp-Gln-NH2]
IC50 [1]: 5000 nM

B6: I-129 (peptide)
peptide: Ac-[αAllylPro]DA[B5(10)]D[Aad]AAFV[S8]FWQ-NH2
modifications: staple 1-4, 4-11
notes: as for B3
EC50 [6]: 83 nM
EC50 [3]: 1980 nM

B7: I-263: Ac-PL3-Asp-Ala-B5-Asp-Asp-Ala-Ala-Phe-Val-S8-34FF-Trp-Gln-NH2 (peptide)
peptide: XDAXDDAAFVXFWQ
modifications: not fully specified; N-terminal Ac; PL3 at position 1; B5 at position 4; S8 at position 11; 34FF at position 12; C-terminal NH2; stapled by olefin metathesis (PL3-B5 and B5-S8)
notes: It is the later-eluting isomer composition
IC50 [1]: 5000 nM

B8: I-254 (peptide)
peptide: XDAXDDAAFVXFWQ
modifications: not fully specified; N-terminal Ac; C-terminal NH2; PL3 at 1, B5 at 4, S8 at 11 (staples 1-4 and 4-11 by olefin metathesis); 4F3MeF at 12
notes: Stapled peptide composition; also called Ac-PL3-Asp-Ala-B5-Asp-Asp-Ala-Ala-Phe-Val-S8-4F3MeF-Trp-Gln-NH2
EC50 [4]: 1960 nM
EC50 [5]: 5000 nM

Ac-[αAllylPro]DA[B5(4)]DDAAFV[S8][Phe(4-F)]WQ-NH2 (staple 1-4, 4-11, Stapled peptide) [I-261: Ac-PL3-Asp-Ala-B5-Asp-Asp-Ala-Ala-Phe-Val-S8-4FF-Trp-Gln-NH2]
IC50 [1]: 5000 nM

B9: I-123 (peptide)
peptide: Ac-[αAllylPro]DA[B5(4)]DEAAFV[S8]FWQ-NH2
modifications: staple 1-4, 4-11
notes: as for B3
EC50 [6]: 444 nM
EC50 [3]: 2110 nM

Source: US20240116985A1 (published 2024)
